Laboratory results reported in patent US20250163449A1, “HERBICIDE-TOLERANT GENES AND METHOD FOR USING SAME” (QINGDAO KINGAGROOT CHEMICAL COMPOUND CO., LTD., priority 2022, published 2025).
Numbering of substitutions follows the chain as printed. Names and notes keep the numbering of the source.

B1: SEQ ID NO: 38: RdpA mutant L82H + V187L + F182W + R104G (protein)
chain: MHAALSPLSQRFERIAVQPLTGVLGAEITGVDLREPLDDSTWNEILDAFHTYQVIYFPGQAITNEQHIAFSRRFGPVDPVPHLKSIEGYPEVQMIRREANESGGVIGDDWHTDSTFLDAPPAAVVMRAIDVPEHGGDTGFLSMYTAWETLSPTMQATIEGLNVVHSATRVFGSLYQAQNRRWSNTSLKVMDVDAGDRETVHPLVVTHPGSGRKGLYVNQVYCQRIEGMTDAESKPLLQFLYEHATRFDFTCRVRWKKDQVLVWDNLCTMHRAVPDYAGKFRYLTRTTVGGVRPAR
B2: SEQ ID NO: 122: RdpA mutant L82H + V187L + F182W + G103L + R104G + V105Y (protein)
chain: B1 chain with G103L, V105Y
B3: SEQ ID NO: 54: RdpA mutant L82H + V187L + F182W + R104G + R180W (protein)
chain: B1 chain with R180W
B4: SEQ ID NO: 118: RdpA mutant L82H + V187L + F182W + R104G + V77I (protein)
chain: B1 chain with V77I
B5: SEQ ID NO: 58: RdpA mutant L82H + V187L + F182W + R104G + R180M (protein)
chain: B1 chain with R180M
B6: SEQ ID NO: 50: RdpA mutant L82H + V187L + F182W + R104G + V80T (protein)
chain: B1 chain with V80T
B7: SEQ ID NO: 126: RdpA mutant L82H + V187L + F182W + R104G + T112S + R180K (protein)
chain: B1 chain with T112S, R180K
B8: SEQ ID NO: 102: RdpA mutant L82H + V187L + F182W + G103L + T112A (protein)
chain: B1 chain with G103L, G104R, T112A
B9: SEQ ID NO: 138: RdpA mutant L82H + V187L + F182W + G103L + R180T (protein)
chain: B1 chain with G103L, G104R, R180T
B10: SEQ ID NO: 86: RdpA mutant L82H + V187L + F182W + G103L + R180S (protein)
chain: B1 chain with G103L, G104R, R180S
B11: SEQ ID NO: 106: RdpA mutant L82H + V187L + F182W + G103L + T112S (protein)
chain: B1 chain with G103L, G104R, T112S
B12: SEQ ID NO: 82: RdpA mutant L82H + V187L + F182W + G103L + R180E (protein)
chain: B1 chain with G103L, G104R, R180E
B13: SEQ ID NO: 6 (protein)
chain: B1 chain with G104R, W182F
B14: SEQ ID NO: 2 (protein)
chain: B1 chain with G104R, W182F, L187V
B15: SEQ ID NO: 1: Amino acid sequence of RdpA (wild-type R-dichlorprop dioxygenase) (protein)
chain: B1 chain with H82L, G104R, W182F, L187V
modifications: Sphingobium herbicidovorans
B16: SEQ ID NO: 98: RdpA mutant L82H + V187L + F182W + G103L + V80T (protein)
chain: B1 chain with V80T, G103L, G104R
B17: SEQ ID NO: 134 (protein)
chain: B1 chain with T112S, R180W
B18: SEQ ID NO: 78: RdpA mutant L82H + V187L + F182W + G103L + R180D (protein)
chain: B1 chain with G103L, G104R, R180D

Tested on: not listed separately
Assay: Enzymatic kinetic measurements of purified proteins with compound A as substrate
Type: biochemical
Details: purified protein, compound A 0-1000 μM as substrate
Experimental: Based on the results of HPLC, representative engineered proteins were selected for protein purification. Further protein characterization, such as Km, Vmax and Kcat, was performed on the 8 engineered proteins from Table 2. Conventional Ni column affinity chromatography was used for protein purification and protein extract purity was assessed by SDS-PAGE analysis. After determining protein concentration by BCA method, enzyme activity was determined.

Molecule | Kcat | Km | Vmax
B1 | 0.43 S^−1 | 54.6 µM | 49.9
B2 | 1.1 S^−1 | 96.4 µM | 127.9
B3 | 0.35 S^−1 | 96.9 µM | 81
B4 | 0.43 S^−1 | 83.7 µM | 99.5
B5 | 0.05 S^−1 | 28.3 µM | 12.3
B6 | 0.07 S^−1 | 24.9 µM | 15.7

Tested on: rice (Jinjing 818)
Assay: Transgenic rice seedlings, compound B added to medium at rooting phase
Type: in vivo
Details: at least 1 μM compound B in medium (0.5 and 1 μM for SEQ ID NO: 42), 17-26 days
Experimental: Plant transformation vectors were constructed, each comprising a recombinant DNA molecule encoding an engineered protein (SEQ ID NO: 42/38/82/86/102/106/126/138/142) with the protein-coding sequence optimized for monocot expression, and rice (Jinjing 818) calli were transformed with these vectors using Agrobacterium tumifaciens and standard methods known in the art. Different concentrations of hormone herbicide compound B were added at the rooting phase of the rice seedlings to test hormone resistance, wherein, the test results of control Jinjing 818 plants and transgenic Jinjing 818 plants comprising the protein-coding gene of SEQ ID NO: 42 after adding 0.5 μM and 1 μM compound B to medium for 19 days are shown in FIG. 1. The test results of control Jinjing 818 plants and transgenic Jinjing 818 plants comprising the protein-coding genes of SEQ ID NO: 38/82/86/102/106/126/138/142 after adding 1 μM compound B to medium are shown in FIG. 5-11.

Molecule | drug resistance (tolerance to compound B) compared with wild-type plants
B1 | exhibited better drug resistance
B7 | exhibited better drug resistance
B8 | exhibited better drug resistance
B9 | exhibited better drug resistance
B10 | exhibited better drug resistance
B11 | exhibited better drug resistance
B12 | exhibited better drug resistance

Tested on: not listed separately
Assay: Conversion rate of substrate compound A by E. coli expressing each engineered protein (HPLC, oxygenase activity)
Type: biochemical
Details: Reaction condition 1: bacteria cultured overnight, substrate compound A and IPTG added to react overnight
Description: The high-throughput bacterial protein expression was achieved by cloning the synthesized gene that encodes each engineered protein into a bacterial expression vector with a C-terminal histidine tag (His-tag). The vectors were transformed into Escherichia coli (E. coli), and expression of the engineered proteins was induced. E. coli cultures were selected and cultured in centrifuge tubes overnight, meanwhile, added with substrates and IPTG, and the cultures were centrifuged to pellet the bacteria the next day. Alternatively, E. coli cultures were selected and cultured in centrifuge tubes overnight, and centrifuged to pellet the bacteria after adding substrates for reaction the next day. The supernatant of reaction solution was pipetted into a 96-well plate and the absorbance at 510 nm from 4-aminoantipyrine and potassium ferricyanide was measured by an endpoint colorimetric method to detect phenol products. Substrate reduction and product yield were measured by high performance liquid chromatography (HPLC) to detect the oxygenase activity (i.e., enzymatic activity) of the engineered proteins, and the activities of the proteins were compared by calculating conversion rates.
Conversion rate=(Peak area of initial substrate−Peak area of substrate after reaction)/Peak area of initial substrate*100%

Molecule | Conversion rate
B1 | 96.9%
B2 | 94.3%
B3 | 92.5%
B4 | 95.8%
B13 | 95.2%
B5 | 90%
B6 | 97.2%
B14 | 67.5%
B15 | 0.06%

Same assay, conditions: Reaction condition 2: bacteria cultured overnight, 8 times dose of substrate compound A of condition 1 added, react 3 hours the next day

Molecule | Conversion rate
B16 | 81%
B7 | 92.6%
B8 | 93.2%
B17 | 77.6%
B9 | 54.6%
B18 | 79%
B10 | 76.8%
B11 | 86.3%
B15 | 0.06%
B12 | 71.6%

Tested on: Arabidopsis thaliana
Assay: T2 transgenic Arabidopsis thaliana seeds screened on compound A medium
Type: in vivo
Details: 0.15 μM compound A in medium, 11-24 days
Description: Engineered proteins were selected for Arabidopsis thaliana transformation and plant analysis. DNA constructs were transformed into Arabidopsis thaliana using Agrobacterium tumifaciens and standard methods known in the art.
The transformed TO transgenic plantlets grew in the greenhouse. T1 generation Arabidopsis thaliana plant seeds produced by transformation of all constructs were collected after approximately 60 days of growth. Transgenic T1 generation Arabidopsis thaliana plants were screened by adding HYG to medium for T1 generation. T1 plants were selfed to produce seeds of T2 generation Arabidopsis thaliana plants. Wherein, compound A was added to medium to screen and test T2 generation Arabidopsis thaliana plant seeds, that were produced by all constructs, comprising unique events screened by T1 generation.

Molecule | drug resistance compared with wild-type Arabidopsis thaliana (longer roots and larger leaves)
B16 | exhibited better drug resistance
B7 | exhibited better drug resistance
B8 | exhibited better drug resistance
B9 | exhibited better drug resistance
B18 | exhibited better drug resistance
B10 | exhibited better drug resistance
B12 | exhibited better drug resistance

Tested on: rice (Jinjing 818)
Assay: Transgenic rice T0 plantlets in greenhouse sprayed with compound B
Type: in vivo
Details: medicated medium test and greenhouse spraying test for T0 generation, compound B
Experimental: Then, the obtained regenerated TO generation transgenic plantlets grew in the greenhouse, and were sprayed with compound B at the growth stage when approximately two leaves unfolded and the third one just appearing. Resistance levels of plants were recorded and evaluated after spraying treatment, wherein, the test results of control Jinjing 818 plants and transgenic Jinjing 818 plants comprising the protein-coding gene of SEQ ID NO: 42 after applying 20 g, 40 g, 60 g, 80 g, 100 g, 120 g/mu (1 mu=1/15 ha) compound B for corresponding days (DAT) are shown in FIG. 2.

Molecule | tolerance compared with the wild types (summary)
B1 | exhibited apparent tolerance
B7 | exhibited apparent tolerance
B8 | exhibited apparent tolerance
B9 | exhibited apparent tolerance
B10 | exhibited apparent tolerance
B11 | exhibited apparent tolerance
B12 | exhibited apparent tolerance
